T1: GST-SPATIAL(L) (Mus musculus, UniProt Q7TSD4)
T1 construct: made in house
T1 sequence (Q7TSD4 with tags, fused parts or gaps isoform Q7TSD4-6 limits assumed): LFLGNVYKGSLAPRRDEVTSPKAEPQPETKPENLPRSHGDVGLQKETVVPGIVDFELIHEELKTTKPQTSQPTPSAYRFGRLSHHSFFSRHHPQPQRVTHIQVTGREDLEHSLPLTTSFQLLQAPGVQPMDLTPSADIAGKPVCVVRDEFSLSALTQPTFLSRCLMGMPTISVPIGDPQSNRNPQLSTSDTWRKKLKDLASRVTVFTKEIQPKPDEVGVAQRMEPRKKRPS

T2: HA-tagged SPATIAL (Mus musculus, UniProt Q7TSD4)
T2 construct: expressed in transfected cells; host or cells: 293T human kidney epithelial cells, calcium phosphate transfection
T2 sequence (Q7TSD4 with tags, fused parts or gaps isoform Q7TSD4-6 limits assumed): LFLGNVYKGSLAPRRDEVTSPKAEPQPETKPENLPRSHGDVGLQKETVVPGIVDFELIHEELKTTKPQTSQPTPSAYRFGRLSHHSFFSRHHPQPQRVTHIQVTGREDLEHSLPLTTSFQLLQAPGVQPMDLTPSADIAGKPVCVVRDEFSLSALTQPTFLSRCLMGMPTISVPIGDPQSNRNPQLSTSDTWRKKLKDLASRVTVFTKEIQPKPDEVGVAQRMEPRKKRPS
T2 sequence (Q8C878 224-462 P243X partner limits assumed): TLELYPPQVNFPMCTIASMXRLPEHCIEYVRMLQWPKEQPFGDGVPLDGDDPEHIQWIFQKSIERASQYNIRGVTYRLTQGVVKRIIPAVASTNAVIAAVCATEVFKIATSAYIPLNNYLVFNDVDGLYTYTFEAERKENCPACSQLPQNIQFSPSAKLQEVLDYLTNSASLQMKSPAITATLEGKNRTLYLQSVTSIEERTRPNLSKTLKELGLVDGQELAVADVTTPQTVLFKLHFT


Experiments:
GST-SPATIAL(L) = biological target: T1, GST-SPATIAL(L); assay: GST pulldown assay with GST-SPATIAL long isoform; type: binding; settings: 35S-methionine labeled in vitro translated protein
Method: Eighteen cDNA clones identified in the yeast two-hybrid system were tested in an in vitro glutathione-S-transferase (GST) pulldown assay, as described in Ausubel et al., Current Protocols in Molecular Biology, Greene Publishing Associates, updated November 2003, Chapter 20, Analysis of Protein Interactions, Unit 20.2, Affinity Purification of Proteins Binding to GST Fusion Proteins.
Briefly, a GST-SPATIAL fusion construct was produced by cloning SPATIAL cDNA(s) into pGEx5X1 expression vector using standard molecular cloning techniques. GST or GST-SPATIAL fusion protein were expressed in 1-1000 ml bacterial cultures grown for 3-4 hours until OD600 reached 0.5. Then, plasmid expression was induced for 1.5-4 hours by the addition of ITPG to a final concentration of 0.11 mM. GST or GST-fusion proteins were purified using glutathione-Sepharose beads as described in Ausubel et al., Current Protocols in Molecular Biology, Greene Publishing Associates, updated November 2003, Chapter 20, Analysis of Protein Interactions, Unit 20.2, Affinity Purification of Proteins Binding to GST Fusion Proteins.
A coupled in vitro transcription and translation system (Promega) was used according to the manufacturer's instructions to produce radiolabeled protein from cDNAs to be tested. Radiolabeled proteins were mixed with either purified GST or GST-SPATIAL. Then, GST-containing protein complexes were purified by centrifugation from the reaction mixtures using glutathione-coated Sepharose beads. Bound proteins were eluted from the beads with SDS-PAGE loading buffer heated to 72-85° C., separated on polyacrylamide gels, and visualized by autoradiography. Specific interactions between GST-SPATIAL and in vitro translated proteins were indicated by the presence of a radiolabeled in vitro translated protein in the GST-SPATIAL-containing samples, but not in the GST-alone samples.
GST pulldown assays were performed as described in Example 9 using GST-SPATIAL(L) and GST-SPATIAL(S) and each of the Uba3 mutants described in this example.

HA-tagged SPATIAL = biological target: T2, HA-tagged SPATIAL; assay: Co-immunoprecipitation of SPATIAL and Uba3 from transfected 293T cells; type: binding; settings: only in samples that contained HA-tagged SPATIAL, FIG. 15
Method: Expression vectors encoding Myc-346 and HA-tagged SPATIAL were transfected alone or in combination into 293T cells by calcium phosphate precipitation (Mammalian Transfection Kit; Stratagene, La Jolla, Calif.) in accordance with manufacturer's instructions. Total protein lysates were prepared and immunoprecipitated with an anti-HA antibody, as described in Ausubel et al., Current Protocols in Molecular Biology, Greene Publishing Associates, updated November 2003, Chapter 20, Analysis of Protein Interactions, Unit 20.5, Detection of Protein-Protein Interaction by Coprecipitation. The immunoprecipitated proteins were separated by SDS-PAGE and transferred to a membrane for Western blotting using an anti-Myc antibody.

293T cells [1] = assay: Cell growth analysis: number of fluorescent (EGFP-positive) cells after transient transfection; type: cell-based, human
Method: Human embryonic kidney (293T) cells were maintained in DMEM supplemented with 10% heat-inactivated FBS, 2 mM glutamine, 100 U/ml penicillin, and 0.1 mg/ml streptomycin Cells were grown at 37° C. in a humidified atmosphere with 5% CO2.
The day before transfection, the cells were trypsinized (if needed), counted and plated in a 24-well plate at the density of 7.5×10^4 cells per well with 0.5 ml of their normal growth medium containing serum without antibiotics. On the day of transfection, cells were transfected according to the recommended protocol using 1.0 μg of each plasmid DNA and 3 μl of Lipofectamine 2000 in each well. The cells were kept at 37° C. in a CO2 incubator for 24 hours. […] The number of EGFP-positive cells was calculated using fluorescence-activated cytometry (FACS) analysis at various time points after transfection.
In representative experiments, approximately 0.5-1×10^6 293T cells were transiently transfected with approximately 1-10 μg of either SPATIAL EGFP expression vector or EGFP expression vector by calcium phosphate precipitation using the Mammalian Transfection Kit (Stratagene) in accordance with the manufacturer's instructions. The number of fluorescent EGFP- or SPATIAL-EGFP-transfected cells was monitored over time using flow cytometry or microscopic examination. […]

293T cells [2] = assay: Propidium iodide staining for apoptosis; type: cell-based, human; settings: 24 to 72 hours after transfection
Excerpt: Propidium iodide is a commonly known fluorescent compound, which intercalates into double-stranded nucleic acids. It is excluded by viable cells but can penetrate cell membranes of dying or dead cells. Thus, apoptotic cells may be identified by staining (and, in particular, nuclear staining) with propidium iodide.
Approximately 0.5-1.0×10^6 293T cells were transfected with SPATIAL-EGFP using either calcium phosphate (Mammalian Transfection Kit; Stratagene, La Jolla, Calif.) or Lipofectanine (Invitrogen, Rockville, Md.) in accordance with the manufacturers' instructions. Twenty-four (24) to 72 hours after transfection, the transfected cells were sorted. Approximately 1-5×10^5 sorted cells were resuspended in a solution contain 50 μg/ml propidium iodine, 0.1% sodium citrate and 0.1% Triton X-100 and incubated overnight to lyse the cells and stain the nuclei. Then, the sample was analyzed by flow cytometry to identify sub-diploid amounts of DNA which indicates cell death via apoptosis.

caspase = assay: Caspase activation flow cytometry assay (PhiPhi Lux); type: cell-based; settings: SPATIAL-EGFP transfected cells
Excerpt: Caspase activation plays a central role in the execution of apoptosis (e.g., Budihardjo et al., Ann. Rev. Cell. Dev. Biol., 15:269-90, 1999).

Wehi7.2 cells = assay: Bcl-2 expression assay, SPATIAL-EGFP transfected thymocyte cell line; type: cell-based, mouse; settings: transient transfection by electroporation
Method: (§1) The mouse thymocyte cell line Wehi 7.2 and its variant Wbcl-2, which over expresses bcl-2, were maintained in DMEM supplemented with 10% heat-inactivated FBS, 2 mM glutamine, 100 U/ml penicillin, and 0.1 mg/ml streptomycin. Cells were grown at 37° C. in a humidified atmosphere with 5% CO2.
(§2) Transient transfections were performed using either lipids (Lipofectamine 2000 or FreeStyle 293 Expression System, each supplied by Invitrogen, Rockville, Md.) or calcium phosphate (Mammalian Transfection Kit; Stratagene, La Jolla, Calif.) or electroporation. Manufacturer instructions were followed for lipid and calcium phosphate transfections. For electroporation, the following procedure was used: Before transfection, Wehi cell and Wbcl-2 cells were counted and suspended in fresh complete DMEM without antibiotics at 5×10^5 cells/ml in a 15 cm dish. On the day of transfection, the cells were washed with PBS twice and were suspended in serum free DMEM at 6.25×10^6 cells/mL Aliquots of 800 μl cell suspension were transferred to a 4 mm electroporation cuvette and 10 μg of plasmid DNA solution was added. After 10 minutes incubation on ice, the cells were electroporated under the condition of 310 V, 725 ohms resistance, and 1050 μF capacitance. The transfected cells were incubated on ice for 10 minutes and suspended in complete DMEM in 10 cm dishes at the density of 7.5×10^4 viable cells/ml. […]

Hb12 cells = assay: Bcl-2 expression assay, SPATIAL-EGFP transfected Bcl-2 expressing thymocyte cell line; type: cell-based, mouse; settings: transient transfection by electroporation
Method: as §1, §2

293T cells [3] = assay: DiI cell division analysis by FACS; type: cell-based, human; settings: 4-day period, FIG. 7
Method: 293T cells were transfected with expression plasmid for EGFP alone (pEGFPN1; Clontech) or EGFP-SPATIAL(L). Twenty four (24) hours later, transfected cells were reacted with 3H-Indolium, 2-[3(1,3-dihydro-3,3-dimethyl-1-octacdecyl-2H-indol-2-ylidene)-propenyl]-3,3-dimethyl-octacdecyl-, perchlorate (DiI; Molecular Probes, Eugene, Oreg.) a fluorescent compound that […] binds to lipids. EGFP-positive and/or EGFP-negative cells were analyzed by FACS on the day after transfection and 1 hour after DiI labeling (Day 0) and four days after transfection (Day 4) as indicated.
To directly examine division of SPATIAL EGFP transfected cells, the lipophilic dye, 3H-Indolium, 2-[3-(1,3-dihydro-3,3-dimethyl-1-octacdecyl-2H-indol-2-ylidene) 1-propenyl]-3,3-dimethyl-1-octacdecyl-, perchlorate (DiI). DiI becomes highly fluorescent when it interacts with cell membranes and is equally portioned to each daughter cell during cell division. This property has been used to monitor cell divisions based on the reduction of dye in successive generations, which can be monitored using FACS analysis (Huang et al., Blood, 94(8):2595-2604, 1999). DiI was chosen so that the generational analysis could be done on EGFP-positive cells.

| interaction with GST-SPATIAL(L) (GST-SPATIAL(L)) | co-immunoprecipitation by anti-HA antibody (HA-tagged SPATIAL) | caspase activation (caspase) | Molecule | increase in the number of fluorescent cells (293T cells [1]; four day period post-transfection, FIG. 6) | increase in the number of fluorescent transfected cells (293T cells [1]; two-week period post-transfection, G418 selection) | apoptosis based on nuclear morphology of propidium iodide stained cells (293T cells [2]) | cell growth of transfected cells (Wehi7.2 cells) | cell growth of transfected cells (Hb12 cells) | cell division of EGFP-positive cells (293T cells [3]) |
| --- | --- | --- | --- | --- | --- | --- | --- | --- | --- |
| specifically interacted | reproducibly immunoprecipitated |  | Myc-346: Myc-tagged Uba3-clone 346, carboxyl terminus of Uba3, residues 203 to 441 of SEQ ID NO: 6 (protein, listed as Mus musculus, not fully specified (N-terminus); also: Myc tag) TLELYPPQVNFPMCTIASMPRLPEHCIEYVRMLQWPKEQPFGDGVPLDGDDPEHIQWIFQKSIERASQYNIRGVTYRLTQGVVKRIIPAVASTNAVIAAVCATEVFKIATSAYIPLNNYLVFNDVDGLYTYTFEAERKENCPACSQLPQNIQFSPSAKLQEVLDYLTNSASLQMKSPAITATLEGKNRTLYLQSVTSIEERTRPNLSKTLKELGLVDGQELAVADVTTPQTVLFKLHFT |  |  |  |  |  |  |
|  |  | No caspase activation was detected | SPATIAL-EGFP: SPATIAL isoform fused to enhanced green fluorescent protein, expressed from pEGFPN1 (protein, left off: large carriers, SPATIAL isoform fused to enhanced green fluorescent protein, expressed from pEGFPN1) LFLGNVYKGSLAPRRDEVTSPKAEPQPETKPENLPRSHGDVGLQKETVVPGIVDFELIHEELKTTKPQTSQPTPSAYRFGRLSHHSFFSRHHPQPQRVTHIQVTGREDLEHSLPLTTSFQLLQAPGVQPMDLTPSADIAGKPVCVVRDEFSLSALTQPTFLSRCLMGMPTISVPIGDPQSNRNPQLSTSDTWRKKLKDLASRVTVFTKEIQPKPDEVGVAQRMEPRKKRPS | no increase | 2-3 fold | no evidence of apoptosis | profound suppression of cell growth | profound suppression of cell growth | effectively blocked the majority of transfected cells from dividing |
